Test results from patent publication US20050176124.

Biological target: T1, EGF receptor autophosphorylation site peptide DADEpYL-NH2
T1 chain: DADEYL

B1: DSP-3-glutathione-S-transferase (GST) fusion protein (protein)
chain: MGNGMNKILPGLYIGNFKDARDAEQLSKNKVTHILSVHDSARPMLEGVKYLCIPAADSPSQNLTRHFKESIKFIHECRLRGESCLVHCLAGVSRSVTLVIAYIMTVTDFGWEDALHTVRAGRSCANPNVGFQRQLQEFEKHEVHQYRQWLKEEYGESPLQDAEEAKNILAAPGILKFWAFLRRL
For B1, the “Km (phosphatase assay, release of 32P from substrate peptide)” value was “Km=1.2 µM” and the “specific activity (phosphatase assay, release of 32P from substrate peptide)” value was 88.4 nmol/min/mg.
